In general, pKd refers to −log10 of the Kd, conventionally taken in molar units.

pKd: −log10 of the molar value.

Experimental findings from PMC8087782, “Developing Nanodisc-ID for label-free characterizations of membrane proteins” (Communications Biology, 2021) are described below.

For assay [1], the target named is T1, MalFGK2 (Escherichia coli, UniProt P68187).
T1 construct: gene malK
To be noted: APEX2-MSP1D1 nanodiscs; MalE and maltose.

Assay [2] addresses vesicle (v-) SNAREs reconstituted in APEX2-MSP1D1 nanodiscs (UniProt P63045). Nature of the assay: proximity labelling; nanodisc-ID: liposomes harboring t-SNAREs incubated with APEX2-MSP1D1 nanodiscs bearing v-SNAREs, with syt1-Ca2+; PL efficiency of t-SNAREs against v-SNARE nanodisc concentration; PBS, room temp; one-site fit; apparent.
For assay [3] the target is unchanged. Nature of the assay: proximity labelling; nanodisc-ID: liposomes harboring t-SNAREs incubated with APEX2-MSP1D1 nanodiscs bearing v-SNAREs, without syt1-Ca2+; PL efficiency of t-SNAREs against v-SNARE nanodisc concentration; PBS, room temp; one-site fit; apparent.
Assay [4] shares this target. The description is as above. The source holds these as a separate data set.

T1 sequence (P68187 whole entry): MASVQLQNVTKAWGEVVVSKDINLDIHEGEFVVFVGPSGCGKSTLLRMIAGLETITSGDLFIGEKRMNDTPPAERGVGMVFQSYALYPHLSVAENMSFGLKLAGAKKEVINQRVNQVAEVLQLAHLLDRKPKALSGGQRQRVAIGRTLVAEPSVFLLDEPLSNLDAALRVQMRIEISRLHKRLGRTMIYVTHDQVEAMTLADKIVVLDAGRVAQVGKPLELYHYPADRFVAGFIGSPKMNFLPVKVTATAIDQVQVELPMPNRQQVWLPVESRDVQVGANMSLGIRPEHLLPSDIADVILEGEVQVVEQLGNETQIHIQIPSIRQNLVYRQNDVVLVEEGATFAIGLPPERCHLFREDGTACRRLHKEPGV
T1 sequence (P02916 whole entry, further chain): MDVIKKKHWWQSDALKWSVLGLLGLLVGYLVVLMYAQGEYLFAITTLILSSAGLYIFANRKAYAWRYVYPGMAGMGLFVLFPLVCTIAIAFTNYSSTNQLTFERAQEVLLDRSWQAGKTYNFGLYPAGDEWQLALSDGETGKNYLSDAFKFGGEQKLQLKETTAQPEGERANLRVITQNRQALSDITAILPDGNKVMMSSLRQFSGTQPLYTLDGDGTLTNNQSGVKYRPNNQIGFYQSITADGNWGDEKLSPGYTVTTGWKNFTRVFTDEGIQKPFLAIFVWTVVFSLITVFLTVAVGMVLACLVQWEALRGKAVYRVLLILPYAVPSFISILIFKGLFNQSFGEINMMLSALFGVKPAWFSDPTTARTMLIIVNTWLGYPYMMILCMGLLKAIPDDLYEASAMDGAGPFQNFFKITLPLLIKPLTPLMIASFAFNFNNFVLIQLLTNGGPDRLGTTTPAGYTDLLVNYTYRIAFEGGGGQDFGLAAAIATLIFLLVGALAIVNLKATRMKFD
T1 sequence (P68183 whole entry, further chain): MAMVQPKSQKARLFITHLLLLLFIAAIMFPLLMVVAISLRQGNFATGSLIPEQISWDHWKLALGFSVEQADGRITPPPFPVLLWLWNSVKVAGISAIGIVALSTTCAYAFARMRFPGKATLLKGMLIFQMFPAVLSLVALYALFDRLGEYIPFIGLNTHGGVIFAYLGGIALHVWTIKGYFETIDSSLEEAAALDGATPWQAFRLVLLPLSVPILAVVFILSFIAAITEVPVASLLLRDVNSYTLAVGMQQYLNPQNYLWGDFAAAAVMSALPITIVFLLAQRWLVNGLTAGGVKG

As for `Nc1ncnc2c1ncn2[C@@H]1O[C@H](COP(=O)(O)OP(=O)(O)OP(=O)(O)O)[C@@H](O)[C@H]1O` [ATP], the “photo-colorimetric ATPase assay” value in assay [1] was “the ATPase activity of MalFGK2 was responding to the addition of MalE and maltose”.
In the case of “target (t-) membrane SNAREs embedded in liposomes (complex)”, the pKd in assay [2] was 7.07; in assay [3] it was 5.55; in assay [4], 5.59.
